Experiment [1] addresses human G Protein coupled receptor 48 (GPR48), endogenous, in colorectal cancer cells, tissues and organoids (human) (UniProt Q9BXB1). The experiment in a line: cell-based or functional assay.
Experiment [2] shares this target. The experiment in a line: flow cytometry on P6C cells, dilution series of antibody, FITC goat anti-mouse IgG. In general terms: In flow cytometry, cells or beads pass a laser one at a time.
The target is the same in experiment [3]. Briefly: western blot on P6C lysate, dilution series of antibody. Background: In western blotting, separated proteins are transferred to a membrane and probed.

In experiment [1], “Commercial GPR48 monoclonal antibody, R&D Systems, clone #852229, product number MAB7750” displayed an inhibition rate, colony formation of HCT116 cells, 10 µg/ml antibody of 15.4%; an inhibition rate, colony formation of P6C cells, 10 µg/ml antibody of 9.7%; an inhibition rate, colony formation of SW480 cells, 10 µg/ml antibody of 26.1%. This substance returned a dilution factor (dilution factor) in experiment [2] of 100. In experiment [3], this substance registered a titer (reciprocal dilution (1:x) of 1 mg/ml) of 300.

The record behind these values is patent US20240101665A1.
